# B1: TIF2.2 (TIF2 amino acids 1288-1464) (other)
# chain: NPRIPQANAQQFPFPPNYGISQQPDPGFTGATTPQSPLMSPRMAHTQSPMMQQSQANPAYQAPSDINGWAQGNMGGNSMFSQQSPPHFGQQANTSMYSNNMNINVSMATNTGGMSSMNQMTGQISMTSVTSVSTSGLSSMGPEQVNDPALRGGNLFPNQLPGMDMIKQEGDTTRKYC
# notes: In-vitro-translated; also called AD2
# Experiments:
# [1] = test system: GAL4 reporter; experiment: GAL4 DBD-TIF2 fusion CAT reporter transactivation assay; type: cell-based; details: Cos-1 and/or HeLa cells
# In short: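 Transiently transfected HeLa and Cos-1 cells received plasmids (3 μg; 1-10 μg in titration) expressing TIF2 regions or mutants fused to GAL4 DBD(1-147), plus 1 μg (17m)5-G-CAT reporter. CAT activity measured by TLC phosphoimaging or CAT ELISA, normalized to cotransfected β-galactosidase, expressed as fold over GAL4 DBD alone; mean of ≥3 experiments.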
# [2] = test system: GAL-CBP; experiment: two hybrid analysis of CBP-TIF2 interaction in HeLa cells; type: cell-based
# Protocol: (e) Two hybrid analysis of the CBP-TIF2 interaction in mammalian cells in vivo. HeLa cells were transfected with 0.2 μg of the GAL4 or GALA-CBP (expressing CBP residues 1872 to 2165) expression vectors together with 0.2 μg of the VP16 or VPI6-TF2 expression vectors in the presence of 2 μg of (17m)5-TATA-CAT reporter plasmid. Fold induction relative to the GAL-CBP activity is indicated. The mean of three experiments is shown; in each case, values varied by less than ±20%.
# HeLa cells were transfected with 0.2 μg of GAL4 or GAL-CBP expression vectors together with 0.2 μg of VP16 or VP16-TIF2.13 expression vectors in the presence of 1 μg of (17m)5-TATA-CAT reporter plasmid. Data are represented as fold induction of the activity seen with GAL-CBP alone. The mean and standard, deviation obtained from ten experiments are shown. The expression levels were confirmed by Western blotting with antibodies directed against GAL4 DBD and VP16 AAD (data not shown).
# Furthermore, it was reported that SRC-1, which belongs to the same gene family as TIF2, interacts with CBP and p300 (Kamei, Y. et al., Cell 85:403-414 (1996); Yao, T. P. et al., Proc. Natl. Acad. Sci. USA 93:10626-10631 (1996); Hanstein, B., et al., Proc. Natl. Acad Sci USA 93:11540-11545 (1996)). Using GST-fusion protein-based interaction and animal cell-based two hybrid assays, we therefore analyzed whether TIF2 could also interact with CBP. […] A GST-CBP fusion protein was expressed in E. coli and used for puU-down assays with in vitro translated TIF2 polypeptides (FIG. 7d).
molecule,measurement,setting,value
B1,transcriptional activation of GAL4 reporter by GAL4 DBD fusion,[1],able to activate transcription
same,"interaction with GAL-CBP, two hybrid",[2],not

# Source: US6861508B2, “Transcriptional intermediary factor-2” (Institut National de la Sante et de la Recherche Medicale, priority 1996, dated 2005)
